# Measurements: the Human Domainome abundance scans (Beltran et al. 2025)
# ± gives the uncertainty stated by the source.
# B1: Arginine-glutamic acid dipeptide repeats protein, residues 502 to 543; numbered along this chain, Q9P2R6 (parent)
# chain: LKGYACRHCFTTTSKDWHHGGRENILLCTDCRIHFKKYGELP
# Variants of: B1
# Test: abundance fitness (aPCA) (normalised: wild type 0, dead -1); higher = more abundant; growth selection in yeast, the domain comes from the species named
# Settings: Homo sapiens
row,Variant,abundance fitness
1,LKGYACRHCFTTTSKDWHHGGRENILLCTDCRIHFKKYLELP,-0.249 ± 0.048
2,LKGYACRHCFTTTSKDWHHGGRENILLCTDCRIHFKKYSELP,-0.171 ± 0.041
3,LKGYACRHCFTTTSKDWHHGGRENILLCTDCRIHFKKYYELP,-0.259 ± 0.047
4,LKGYACRHCFTTTSKDWHHGGRENILLCTDCRIHFKKYAELP,-0.108 ± 0.033
5,LKGYACRHCFTTTSKDWHHGGRENILLCTDCRIHFKKYCELP,-0.142 ± 0.26
6,LKGYACRHCFTTTSKDWHHGGRENILLCTDCRIHFKKYFELP,-0.393 ± 0.14
7,LKGYACRHCFTTTSKDWHHGGRENILLCTDCRIHFKKYQELP,-0.082 ± 0.046
8,LKGYACRHCFTTTSKDWHHGGRENILLCTDCRIHFKKYNELP,0.027 ± 0.095
9,LKGYACRHCFTTTSKDWHHGGRENILLCTDCRIHFKKYMELP,-0.328 ± 0.065
10,LKGYACRHCFTTTSKDWHHGGRENILLCTDCRIHFKKYVELP,-0.42 ± 0.042
11,LKGYACRHCFTTTSKDWHHGGRENILLCTDCRIHFKKYDELP,0.053 ± 0.071
12,LKGYACRHCFTTTSKDWHHGGRENILLCTDCRIHFKKYIELP,-0.726 ± 0.17
13,LKGYACRHCFTTTSKDWHHGGRENILLCTDCRIHFKKYWELP,-0.301 ± 0.038
14,LKGYACRHCFTTTSKDWHHGGRENILLCTDCRIHFKKYRELP,-0.118 ± 0.03
15,LKGYACRHCFTTTSKDWHHGGRENILLCTDCRIHFKKYPELP,-0.478 ± 0.061
16,LKGYACRHCFTTTSKDWHHGGRENILLCTDCRIHFKKYEELP,-0.078 ± 0.04
17,LKGYACRHCFTTTSKDWHHGGRENILLCTDCRIHFKKYTELP,-0.291 ± 0.05
18,LKGYACRHCFTTTSKDWHHGGRENILLCTDCRIHFKKLGELP,-0.123 ± 0.04
19,LKGYACRHCFTTTSKDWHHGGRENILLCTDCRIHFKKQGELP,-0.062 ± 0.11
20,LKGYACRHCFTTTSKDWHHGGRENILLCTDCRIHFKKVGELP,0.022 ± 0.036

row,Variant,abundance fitness
1,LKGYACRHCFTTTSKDWHHGGRENILLCTDCRIHFKKSGELP,-0.017 ± 0.047
2,LKGYACRHCFTTTSKDWHHGGRENILLCTDCRIHFKKGGELP,-0.185 ± 0.033
3,LKGYACRHCFTTTSKDWHHGGRENILLCTDCRIHFKKCGELP,0.059 ± 0.054
4,LKGYACRHCFTTTSKDWHHGGRENILLCTDCRIHFKKNGELP,0.083 ± 0.087
5,LKGYACRHCFTTTSKDWHHGGRENILLCTDCRIHFKKPGELP,-0.215 ± 0.056
6,LKGYACRHCFTTTSKDWHHGGRENILLCTDCRIHFKKAGELP,-0.077 ± 0.038
7,LKGYACRHCFTTTSKDWHHGGRENILLCTDCRIHFKKIGELP,-0.298 ± 0.1
8,LKGYACRHCFTTTSKDWHHGGRENILLCTDCRIHFKKDGELP,-0.114 ± 0.047
9,LKGYACRHCFTTTSKDWHHGGRENILLCTDCRIHFKKTGELP,0.123 ± 0.059
10,LKGYACRHCFTTTSKDWHHGGRENILLCTDCRIHFKKMGELP,-0.117 ± 0.06
11,LKGYACRHCFTTTSKDWHHGGRENILLCTDCRIHFKKFGELP,-0.069 ± 0.062
12,LKGYACRHCFTTTSKDWHHGGRENILLCTDCRIHFKKKGELP,-0.002 ± 0.041
13,LKGYACRHCFTTTSKDWHHGGRENILLCTDCRIHFKKHGELP,-0.111 ± 0.26
14,LKGYACRHCFTTTSKDWHHGGRENILLCTDCRIHFKKRGELP,-0.084 ± 0.034
15,LKGYACRHCFTTTSKDWHHGGRENILLCTDCRIHFKKEGELP,0.018 ± 0.041
16,LKGYACRHCFTTTSKDWHHGGRENILLCTDCRIHFKKWGELP,-0.074 ± 0.049
17,LKGYACRHCFTTTSKDWHHGGRENILLCTDCRIHFKYYGELP,-0.159 ± 0.12
18,LKGYACRHCFTTTSKDWHHGGRENILLCTDCRIHFKEYGELP,-0.04 ± 0.047
19,LKGYACRHCFTTTSKDWHHGGRENILLCTDCRIHFKVYGELP,-0.149 ± 0.036
20,LKGYACRHCFTTTSKDWHHGGRENILLCTDCRIHFKCYGELP,-0.168 ± 0.061

row,Variant,abundance fitness
1,LKGYACRHCFTTTSKDWHHGGRENILLCTDCRIHFKSYGELP,-0.052 ± 0.051
2,LKGYACRHCFTTTSKDWHHGGRENILLCTDCRIHFKLYGELP,-0.194 ± 0.041
3,LKGYACRHCFTTTSKDWHHGGRENILLCTDCRIHFKWYGELP,-0.135 ± 0.044
4,LKGYACRHCFTTTSKDWHHGGRENILLCTDCRIHFKTYGELP,-0.032 ± 0.056
5,LKGYACRHCFTTTSKDWHHGGRENILLCTDCRIHFKDYGELP,-0.013 ± 0.049
6,LKGYACRHCFTTTSKDWHHGGRENILLCTDCRIHFKHYGELP,-0.182 ± 0.38
7,LKGYACRHCFTTTSKDWHHGGRENILLCTDCRIHFKQYGELP,-0.027 ± 0.046
8,LKGYACRHCFTTTSKDWHHGGRENILLCTDCRIHFKMYGELP,-0.089 ± 0.065
9,LKGYACRHCFTTTSKDWHHGGRENILLCTDCRIHFKGYGELP,-0.184 ± 0.039
10,LKGYACRHCFTTTSKDWHHGGRENILLCTDCRIHFKNYGELP,-0.09 ± 0.068
11,LKGYACRHCFTTTSKDWHHGGRENILLCTDCRIHFKRYGELP,-0.026 ± 0.036
12,LKGYACRHCFTTTSKDWHHGGRENILLCTDCRIHFKPYGELP,-0.278 ± 0.13
13,LKGYACRHCFTTTSKDWHHGGRENILLCTDCRIHFKKYGDLP,-0.101 ± 0.049
14,LKGYACRHCFTTTSKDWHHGGRENILLCTDCRIHFKKYGCLP,-0.073 ± 0.072
15,LKGYACRHCFTTTSKDWHHGGRENILLCTDCRIHFKKYGILP,-0.095 ± 0.38
16,LKGYACRHCFTTTSKDWHHGGRENILLCTDCRIHFKKYGALP,-0.066 ± 0.034
17,LKGYACRHCFTTTSKDWHHGGRENILLCTDCRIHFKKYGKLP,-0.044 ± 0.045
18,LKGYACRHCFTTTSKDWHHGGRENILLCTDCRIHFKKYGHLP,-0.11 ± 0.073
19,LKGYACRHCFTTTSKDWHHGGRENILLCTDCRIHFKKYGGLP,-0.136 ± 0.033
20,LKGYACRHCFTTTSKDWHHGGRENILLCTDCRIHFKKYGFLP,-0.472 ± 0.1
